Measurements: the supplement of paper PMC9170038

Test system: MS2 coat protein
Assay: apparent KD of MS2 coat protein; higher = weaker reporter binding
Details: Eterna round: R107
Procedure, shortened: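 Each design's apparent KD comes from the median of binding-curve fits to its normalised clusters. Those clusters carried RNA switches transcribed on-chip from Illumina sequencing clusters. SNAP-549-labelled MS2 coat protein was titrated onto them in twofold steps (0.7 or 1.5 nM to 3 µM; per step 0.8–1.5 h down to 10–20 min). Conditions were 100 mM Tris-HCl pH 7.5, 80 mM KCl, 4 mM MgCl2, without or with constant ligand.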

[1] = input ligand: theophylline 20 uM
[2] = input ligand: theophylline 2 mM
[3] = input ligand: tryptophan 2.4 mM

Sequence | apparent KD of MS2 coat protein (input ligand: arginine 13.2 mM) [nM] | apparent KD of MS2 coat protein [1] [nM] | apparent KD of MS2 coat protein [2] [nM] | apparent KD of MS2 coat protein [3] [nM] | apparent KD of MS2 coat protein (input ligand: none) [nM]
GCAUCCUAGUCGGCCGCCACUGCAUCACCAGUGGCAGGUGAUCAACAUGAGGAUCACCCAUGUAGCAGGACCGGGACUAGGAUGC [(Trp1)-(TM)''-(TM)'-(Ms2)-(Trp2)_Design4] | 113 | 163 | 168 |  | 
GCAUCCUAGUCGGCCGCCACUGCAUGUAGGCAGUGCUGCUACAAACAUGAGGAUCACCCAUGUAGCAGGACCGGGACUAGGAUGC [(Trp1)-(MT2)''-(T1)'-(MT2)'-(Ms2)-(Trp2)_Design2] | 13 | 18.5 | 15.6 |  | 
GCCAGACAUGAGGAUCACCCAUGUAGCGAUACCAGCUCUGUUGUGAGCCCUUGGCAGCGCACUGGCAUCGUAGGUGAUCCAAUAA [(T)''-(Ms2)-(Theo)-(T)'-(M)'_Design1] | 50.4 | 114 |  | 45.9 | 
GCCGGGCCCGCGGCCGCCACUGAGAGAGUCGUGUGAACAUGAGGAUCACCCAUGUAAUAUAUAUACAGGACCGGGCGGGCCCGGC [4.X] | 13.8 | 20.1 | 15.7 | 13.9 | 10.4
GCCUAGCAGCGAAGGAGCGACAUCGGCGCAUGCGAGGACAUGAGGAUCACCCAUGUACCAUGUCAGGUAGGUCGCGCUGCUAGGC [EAB NP+V+V2 #6] | 17.9 | 36.4 | 23.2 | 24.5 | 23.4
GCGAUGGAGCGAAGGAGCGGCUAAAUGUAUCACAUGAGGAUCACCCAUGUUCCAGGAUGUGGCCAGGUAGGUCGCGCUCCAUCGC [SSAB NP+V+V2 #16] | 233 | 212 | 322 | 288 | 229
GCGAUGGAGCGAAGGAGCGUGCUGGUACAUGAGGAUCACCCAUGUGAGUCGCAGCGCUAAGCACAGGUAGGUCGCGCUCCAUCGC [EAB NP+V+V2 #11] | 49.1 | 35.3 | 34.5 | 34.2 | 28
GCGGUACGUACUGAUACCAGAGACAUGAGGAUCACCCAUGUCCCAUGGUCAUGCCUCAGACUCCCUUGGCAGCAGGAUAAGUGCG [Exclusion Theophylline B GF3] | 14.3 | 17.1 | 40.4 | 12.8 | 13.9
GCGUACGAUCGGGAUACCAGACAUUGCCGUUAGGGUGAACUUGAGGAUCACCCAAGUUUUGUCCCUUGGCAGCCCGAUCGUACGC [ETB NP+V+V2 #9 Diff Apt, Same Structure] | 9.92 | 19.4 | 220 | 10.4 | 10
GCGUUCUCUGCGGCCGCCACUCAAGGAGCUACAUAGCUCCUAGACAUGAGGAUCACCCAUGUCGCGAGGACCGGGUAGAUCCUUA [Same State Typptophan B GF8] | 116 | 288 | 360 | 120 | 159
GCGUUCUCUGCGGCCGCCACUCAAGGAGCUACAUAGCUCCUAGACAUGAGGAUCACCCAUGUGGCGAGGACCGGGUAGAUCCUUA [Same State Typptophan B GF7] | 76.3 | 359 | 337 |  | 
GCGUUGGCCACGGCCGCCACUCAGGUACCGCGCGUAGUGAACUUACAUGAGGAUCACCCAUGUCUGAGGACCGGGUGGCCGCCAC [theeternabot_sameState_MS2_Trp_B_27] | 31.7 | 70.3 | 46.1 |  | 
GCUACAUGAGGAUCACCCAUGUGUACUGAAGGAGCGGCGGAAACGCCAGGUAGGUCGCAGUAUGUGGCUCUGGGCACGAGAAAGC [SSAA NP+V+V2 #2] | 36.6 | 28.3 | 72.9 | 34.3 | 25.3
GCUAGGUCAUCGGCCGCCACUAACGACGGUUCCAACAUGAGGAUCACCCAUGUGCCACAUGCGCAUAGGACCGGGAUGACCUAGC [SSTB NP+V+V2 #5] | 31.1 | 51.2 | 42.7 |  | 
GCUAGUGGCAGAAGGAGCGGCAUACAUGCAAGUGACAUGAGGAUCACCCAUGUAAGGGAAUGCCAGGUAGGUCGCUGCCACUAGC [EAB NP+V+V2 #2 +-Same Structure] | 36.2 | 89.6 | 89.2 | 64.2 | 61.5
GCUGCCGUCGGUGAAAACUCCCAUGCAGAUACCAGCGCAUUCCGCCGCCCUUGGCAGCUGCAUACAUGAGGAUCACCCAUGUGUU [theeternabot_exclusion_MS2_Theo_A_48] | 41.4 | 161 |  | 77.3 | 
